Results: patent US20250180556A1 (ECOLE POLYTECHNIQUE FEDERALE DE LAUSANNE EPFL, published 2025)

B1: scFv of monoclonal antibody mAb1 (N-VH-linker-VL-C) (scFv)
scFv: EVQLVQSGAEVKKPGESLKISCKGSGYSFTSYWIGWVRQMPGKGLEWMGIIYPGDSDTRYSPSFQGQVTISADKSISTAYLQWSSLKASDTAMYYCARAGFRGYCSGGSCYRLPYWGQGTLVTVSSGGGGSGGGGSGGGGSTQSVLTQPPSVSAAPGQKVTISCSGSSSNIGNNYVSWYQQLPGTAPKLLIYDNNKRPSGIPDRFSGSKSGTSATLGITGLQTGDEADYYCGTWDVLAARSVFGGGTKLTVLG
notes: Selected from the Tomlinson I,J human scFv library (pIT2 vector); also called scFv based on mAb1
B2: scFv of monoclonal antibody mAb5 (N-VH-linker-VL-C) (scFv)
scFv: EVQLVQSGAEVKKPGESLKISCKGSGYSFTSYWIGWVRQMPGKGLEWMGIIYPGDSDTRYSPSFQGQVTISADKSISTAYLQWSSLKASDTAMYYCARAKVGQRYSSGRYFFDYWGQGTLVTVSSGGGGSGGGGSGGGGSTEIVLTQSPATLSLSPGERATLSCRASQSVSSYLAWYQQKPGQAPRLLIYDASNRATGIPARFSGSGSGTDFTLTISSLEPEDFAVYYCQQGAKDNPMTFGQGTKVEIKR
notes: Selected from the Tomlinson I,J human scFv library (pIT2 vector); also called scFv based on mAb5
B3: scFv of monoclonal antibody mAb2 (N-VH-linker-VL-C) (scFv)
scFv: EVQLVQSGAEVKKPGESLKISCKGSGYSFTSYWIGWVRQMPGKGLEWMGIIYPGDSDTRYSPSFQGQVTISADKSISTAYLQWSSLKASDTAMYYCARLATGPHGIASAGRRYLDYWGQGTLVTVSSGGGGSGGGGSGGGGSTQSVLTQPPSVSAAPGQKVTISCSGSSSNIGNNYVSWYQQLPGTAPKLLIYDNNKRPSGIPDRFSGSKSGTSATLGITGLQTGDEADYYCGTWDSRGFGVFGGGTKLTVLG
notes: Selected from the Tomlinson I,J human scFv library (pIT2 vector); also called scFv based on mAb2

Experiments:
[1] = biological target: T1, glutathione S-transferase (GST)-HmtA chimeric construct, biotinylated in vivo (Methanobrevibacter smithii, biotinylated in vivo by bacteria at the N-terminus (GST) end); assay: ELISA, biotinylated GST-HmtA immobilised on coated plates
T1 construct: The construct was immobilised on coated polystyrene plates; also called GCJ construct; HmtA containing construct; not shown: glutathione S-transferase (GST)
T1 sequence (chain, as listed by the source mutant): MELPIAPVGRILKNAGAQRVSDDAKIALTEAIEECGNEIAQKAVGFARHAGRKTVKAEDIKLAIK
Procedure: (§1) The binding properties of all antibodies were tested by ELISA. A glutathione S-transferase (GST)-HmtA chimeric construct was prepared and further biotinylated in vivo by bacteria at the N-terminus (GST) end of the HmtA construct (GCJ construct). The construct was immobilized in coated polystyrene plates. A control chimeric GST construct (GCH) lacking HmtA was prepared, biotinylated and immobilized analogously.

[2] = biological target: T1, glutathione S-transferase (GST)-HmtA …; assay: ELISA (figure legend)
Procedure: as §1

Row | Binder | binding result [1] | binding result [2]
1 | B1 | binds | –
2 | B2 | – | binds
3 | B3 | binds | –
